Target: T1, His-VPS41 (human, UniProt P49754 1-854)
T1 sequence: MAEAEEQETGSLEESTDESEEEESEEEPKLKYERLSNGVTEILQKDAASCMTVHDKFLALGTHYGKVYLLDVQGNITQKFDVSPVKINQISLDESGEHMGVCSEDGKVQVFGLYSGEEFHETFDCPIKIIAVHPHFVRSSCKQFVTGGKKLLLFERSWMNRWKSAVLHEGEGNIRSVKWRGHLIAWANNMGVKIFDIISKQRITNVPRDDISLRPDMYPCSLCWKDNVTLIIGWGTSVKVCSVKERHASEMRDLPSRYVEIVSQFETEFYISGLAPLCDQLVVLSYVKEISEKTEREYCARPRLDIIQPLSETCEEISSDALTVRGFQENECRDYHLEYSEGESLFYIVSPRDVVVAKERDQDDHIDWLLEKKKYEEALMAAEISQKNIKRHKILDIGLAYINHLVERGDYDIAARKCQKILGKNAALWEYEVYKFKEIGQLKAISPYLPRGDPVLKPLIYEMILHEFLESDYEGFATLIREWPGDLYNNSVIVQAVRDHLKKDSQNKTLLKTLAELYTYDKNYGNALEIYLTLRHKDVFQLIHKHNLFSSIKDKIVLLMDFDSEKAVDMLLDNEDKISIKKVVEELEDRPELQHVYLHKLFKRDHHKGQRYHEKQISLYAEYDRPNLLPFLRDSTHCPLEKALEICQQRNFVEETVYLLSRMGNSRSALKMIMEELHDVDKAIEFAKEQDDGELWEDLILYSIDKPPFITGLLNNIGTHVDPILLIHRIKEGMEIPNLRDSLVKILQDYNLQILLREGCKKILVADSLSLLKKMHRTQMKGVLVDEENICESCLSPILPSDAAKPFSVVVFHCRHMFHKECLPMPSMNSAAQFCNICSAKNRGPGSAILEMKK
Assay: pull-down

B1: GST-RILP (natural protein)
chain: MEPRRAAPGVPGWGSREAAGSASAAELVYHLAGALGTELQDLARRFGPEAAAGLVPLVVRALELLEQAAVGPAPDSLQVSAQPAEQELRRLREENERLRRELRAGPQEERALLRQLKEVTDRQRDELRAHNRDLRQRGQETEALQEQLQRLLLVNAELRHKLAAMQTQLRAAQDRERERQQPGEAATPQAKERARGQAGRPGHQHGQEPEWATAGAGAPGNPEDPAEAAQQLGRPSEAGQCRFSREEFEQILQERNELKAKVFLLKEELAYFQRELLTDHRVPGLLLEAMKVAVRKQRKKIKAKMLGTPEEAESSEDEAGPWILLSDDKGDHPPPPESKIQSFFGLWYRGKAESSEDETSSPAPSKLGGEEEAQPQSPAPDPPCSALHEHLCLGASAAPEA
Q: Does B1 bind?
A: binds
